Assay results: US20240116997A1

Tests used:
[1] = target: IL-18 WT (native sequence, SEQ ID NO: 1) (human) (UniProt Q14116)
[2] = target: C157 (V11I, C38A, K53A, C76A, C127A, D132A) (human) (UniProt Q14116); test: cell-based or functional assay
[3] = target: IL-18 polypeptide SEQ ID NO: 40 (E06K, S55A) (human) (UniProt Q14116); test: cell-based or functional assay
[4] = target: IL-18 polypeptide SEQ ID NO: 54 (E06K, K53A, C38S, C68S, C76S, C127S, K70C) (human) (UniProt Q14116); test: cell-based or functional assay
Sequence of IL-18 polypeptide SEQ ID NO: 54 (E06K, K53A, C38S, C68S, C76S, C127S, K70C) (human) (Q14116 37-193 E42K/C74S/K89A/C104S/K106C/C112S/C163S): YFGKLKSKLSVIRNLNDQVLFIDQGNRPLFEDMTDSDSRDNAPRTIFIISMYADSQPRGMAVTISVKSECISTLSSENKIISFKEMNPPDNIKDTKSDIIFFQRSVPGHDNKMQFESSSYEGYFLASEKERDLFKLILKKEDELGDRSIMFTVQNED

[5] = target: C146 (SEQ ID NO: 79; V11I, C38A, M51G, K53A, C76A, C127A) (human) (UniProt Q14116); test: cell-based or functional assay
Sequence of C146 (SEQ ID NO: 79; V11I, C38A, M51G, K53A, C76A, C127A) (human) (Q14116 37-193 V47I/C74A/M87G/K89A/C112A/C163A): as the sequence (Q14116 37-193 E42K/C74S/K89A/C104S/K106C/C112S/C163S) above, with K6E, V11I, S38A, M51G, S68C, C70K, S76A, S127A counted along it

[6] = target: C156 (V11I, C38A, N41A, K53A, C76A, C127A) (human) (UniProt Q14116); test: cell-based or functional assay
Sequence of C156 (V11I, C38A, N41A, K53A, C76A, C127A) (human) (Q14116 37-193 V47I/C74A/N77A/K89A/C112A/C163A): as the sequence (Q14116 37-193 E42K/C74S/K89A/C104S/K106C/C112S/C163S) above, with K6E, V11I, S38A, N41A, S68C, C70K, S76A, S127A counted along it

[7] = target: IL-18 polypeptide SEQ ID NO: 6 (E6K, V11I, C38A, K53A, T63A, C68A, C76A, D98C, C127A) (human) (UniProt Q14116); test: cell-based or functional assay
Sequence of IL-18 polypeptide SEQ ID NO: 6 (E6K, V11I, C38A, K53A, T63A, C68A, C76A, D98C, C127A) (human) (Q14116 other isoform, or with tags, fused parts or gaps with the stated changes): as the sequence (Q14116 37-193 E42K/C74S/K89A/C104S/K106C/C112S/C163S) above, with V11I, S38A, T63A, S68A, C70K, S76A, D98C, S127A counted along it

[8] = target: IL-18 polypeptide SEQ ID NO: 38 (E06K) (human) (UniProt Q14116); test: cell-based or functional assay
Sequence of IL-18 polypeptide SEQ ID NO: 38 (E06K) (human) (Q14116 37-193 E42K): as the sequence (Q14116 37-193 E42K/C74S/K89A/C104S/K106C/C112S/C163S) above, with S38C, A53K, S68C, C70K, S76C, S127C counted along it

[9] = target: C153 (V11I, D37A, C38A, K53A, C76A, C127A) (human) (UniProt Q14116); test: cell-based or functional assay
Sequence of C153 (V11I, D37A, C38A, K53A, C76A, C127A) (human) (Q14116 37-193 V47I/D73A/C74A/K89A/C112A/C163A): as the sequence (Q14116 37-193 E42K/C74S/K89A/C104S/K106C/C112S/C163S) above, with K6E, V11I, D37A, S38A, S68C, C70K, S76A, S127A counted along it

[10] = target: IL-18 polypeptide SEQ ID NO: 62 (E6K, C38A, K53A, C127A) (human) (UniProt Q14116); test: cell-based or functional assay
Sequence of IL-18 polypeptide SEQ ID NO: 62 (E6K, C38A, K53A, C127A) (human) (Q14116 other isoform, or with tags, fused parts or gaps C38A K53A C127A C38A K53A C127A): as the sequence (Q14116 37-193 E42K/C74S/K89A/C104S/K106C/C112S/C163S) above, with S38A, S68C, C70K, S76C, S127A counted along it

[11] = target: IL-18 polypeptide SEQ ID NO: 48 (C38S, C68S, C76S, C127S, K70C) (human) (UniProt Q14116); test: cell-based or functional assay
Sequence of IL-18 polypeptide SEQ ID NO: 48 (C38S, C68S, C76S, C127S, K70C) (human) (Q14116 37-193 C74S/C104S/K106C/C112S/C163S): as the sequence (Q14116 37-193 E42K/C74S/K89A/C104S/K106C/C112S/C163S) above, with K6E, A53K counted along it

[12] = target: IL-18 polypeptide SEQ ID NO: 37 (S55A) (human) (UniProt Q14116); test: cell-based or functional assay
Sequence of IL-18 polypeptide SEQ ID NO: 37 (S55A) (human) (Q14116 37-193 S91A): as the sequence (Q14116 37-193 E42K/C74S/K89A/C104S/K106C/C112S/C163S) above, with K6E, S38C, A53K, S55A, S68C, C70K, S76C, S127C counted along it

[13] = target: IL-18 polypeptide SEQ ID NO: 51 (T63A) (human) (UniProt Q14116); test: cell-based or functional assay
Sequence of IL-18 polypeptide SEQ ID NO: 51 (T63A) (human) (Q14116 37-193 T99A): as the sequence (Q14116 37-193 E42K/C74S/K89A/C104S/K106C/C112S/C163S) above, with K6E, S38C, A53K, T63A, S68C, C70K, S76C, S127C counted along it

[14] = target: IL-18 polypeptide SEQ ID NO: 59 (E6K, C38A, K53A) (human) (UniProt Q14116); test: cell-based or functional assay
Sequence of IL-18 polypeptide SEQ ID NO: 59 (E6K, C38A, K53A) (human) (Q14116 other isoform, or with tags, fused parts or gaps C38A K53A C38A K53A): as the sequence (Q14116 37-193 E42K/C74S/K89A/C104S/K106C/C112S/C163S) above, with S38A, S68C, C70K, S76C, S127C counted along it

[15] = target: C162 (K8E, V11I, C38A, C76A, Q103R, C127A) (human) (UniProt Q14116); test: cell-based or functional assay
Sequence of C162 (K8E, V11I, C38A, C76A, Q103R, C127A) (human) (Q14116 other isoform, or with tags, fused parts or gaps V11I C38A C76A Q103R C127A V11I C38A C76A Q103R C127A): as the sequence (Q14116 37-193 E42K/C74S/K89A/C104S/K106C/C112S/C163S) above, with K6E, K8E, V11I, S38A, A53K, S68C, C70K, S76A, Q103R, S127A counted along it

[16] = target: IL-18 polypeptide SEQ ID NO: 46 (E06K, K53A, S55A, M51G) (human) (UniProt Q14116); test: cell-based or functional assay
Sequence of IL-18 polypeptide SEQ ID NO: 46 (E06K, K53A, S55A, M51G) (human) (Q14116 37-193 E42K/M87G/K89A/S91A): as the sequence (Q14116 37-193 E42K/C74S/K89A/C104S/K106C/C112S/C163S) above, with S38C, M51G, S55A, S68C, C70K, S76C, S127C counted along it

[17] = target: C165 (V11I, C38A, S55R, C76A, C127A) (human) (UniProt Q14116); test: cell-based or functional assay
Sequence of C165 (V11I, C38A, S55R, C76A, C127A) (human) (Q14116 37-193 V47I/C74A/S91R/C112A/C163A): as the sequence (Q14116 37-193 E42K/C74S/K89A/C104S/K106C/C112S/C163S) above, with K6E, V11I, S38A, A53K, S55R, S68C, C70K, S76A, S127A counted along it

[18] = target: IL-18 polypeptide SEQ ID NO: 47 (C38S, C68S, C76S, C127S) (human) (UniProt Q14116); test: cell-based or functional assay
Sequence of IL-18 polypeptide SEQ ID NO: 47 (C38S, C68S, C76S, C127S) (human) (Q14116 37-193 C74S/C104S/C112S/C163S): as the sequence (Q14116 37-193 E42K/C74S/K89A/C104S/K106C/C112S/C163S) above, with K6E, A53K, C70K counted along it

[19] = target: C086 (SEQ ID NO: 30; E6K, V11I, C38A, K53A, T63A, C76A, C127A) (human) (UniProt Q14116); test: cell-based or functional assay
Sequence of C086 (SEQ ID NO: 30; E6K, V11I, C38A, K53A, T63A, C76A, C127A) (human) (Q14116 other isoform, or with tags, fused parts or gaps with the stated changes): as the sequence (Q14116 37-193 E42K/C74S/K89A/C104S/K106C/C112S/C163S) above, with V11I, S38A, T63A, S68C, C70K, S76A, S127A counted along it

[20] = target: IL-18 polypeptide SEQ ID NO: 5 (E6K, V11I, C38A, K53A, T63A, C68A, C76A, M86C, C127A) (human) (UniProt Q14116); test: cell-based or functional assay
Sequence of IL-18 polypeptide SEQ ID NO: 5 (E6K, V11I, C38A, K53A, T63A, C68A, C76A, M86C, C127A) (human) (Q14116 other isoform, or with tags, fused parts or gaps with the stated changes): as the sequence (Q14116 37-193 E42K/C74S/K89A/C104S/K106C/C112S/C163S) above, with V11I, S38A, T63A, S68A, C70K, S76A, M86C, S127A counted along it

Sequence of IL-18 WT (native sequence, SEQ ID NO: 1) (human) (Q14116 37-193): as the sequence (Q14116 37-193 E42K/C74S/K89A/C104S/K106C/C112S/C163S) above, with K6E, S38C, A53K, S68C, C70K, S76C, S127C counted along it
Sequence of IL-18 polypeptide SEQ ID NO: 40 (E06K, S55A) (human) (Q14116 37-193 E42K/S91A): as the sequence (Q14116 37-193 E42K/C74S/K89A/C104S/K106C/C112S/C163S) above, with S38C, A53K, S55A, S68C, C70K, S76C, S127C counted along it
Sequence of C157 (V11I, C38A, K53A, C76A, C127A, D132A) (human) (Q14116 37-193 V47I/C74A/K89A/C112A/C163A/D168A): as the sequence (Q14116 37-193 E42K/C74S/K89A/C104S/K106C/C112S/C163S) above, with K6E, V11I, S38A, S68C, C70K, S76A, S127A, D132A counted along it

IC50 (read off the curve), inhibition of IFNg production by NK-92 cells [1]: 1 to 2 nM | IC50 (nM), IL-18BPa inhibition of IFNγ induction, NK-92 cells [2]: 3.98 nM | IC50 (nM), IL-18BPa inhibition of IFNγ induction, NK-92 cells [3]: 15 nM | IC50 (nM), IL-18BPa inhibition of IFNγ induction, NK-92 cells [4]: 23.5 nM | IC50 (nM), IL-18BPa inhibition of IFNγ induction, NK-92 cells [5]: 47.6 nM | IC50 (nM), IL-18BPa inhibition of IFNγ induction, NK-92 cells [6]: 6.08 nM | IC50 (nM), IL-18BPa inhibition of IFNγ induction, NK-92 cells [7]: 5.85 nM | IC50 (nM), IL-18BPa inhibition of IFNγ induction, NK-92 cells [8]: 7.79 nM | IC50 (nM), IL-18BPa inhibition of IFNγ induction, NK-92 cells [9]: 3.71 nM | IC50 (nM), IL-18BPa inhibition of IFNγ induction, NK-92 cells [10]: 780 nM | IC50 (nM), IL-18BPa inhibition of IFNγ induction, NK-92 cells [11]: 0.114 nM | IC50 (nM), IL-18BPa inhibition of IFNγ induction, NK-92 cells [12]: 4.46 nM | IC50 (nM), IL-18BPa inhibition of IFNγ induction, NK-92 cells [13]: 0.239 nM | IC50 (nM), IL-18BPa inhibition of IFNγ induction, NK-92 cells [14]: 146 nM | IC50 (nM), IL-18BPa inhibition of IFNγ induction, NK-92 cells [15]: 0.823 nM | IC50 (nM), IL-18BPa inhibition of IFNγ induction, NK-92 cells [16]: 0.189 nM | IC50 (nM), IL-18BPa inhibition of IFNγ induction, NK-92 cells [17]: 0.44 nM | IC50 (nM), IL-18BPa inhibition of IFNγ induction, NK-92 cells [18]: 0.444 nM | IC50 (nM), IL-18BPa inhibition of IFNγ induction, NK-92 cells [19]: 284 nM | IC50 (nM), IL-18BPa inhibition of IFNγ induction, NK-92 cells [20]: 62.4 nM
Substance: Fc-fused human IL-18 binding protein isoform a (IL-18BPa) (from UniProt O95998 31-194) (Fc fusion)
